One data set deals with MheI (Nocardioides sp., UniProt C8CP46). The data set is described as follows: Enzyme assays and determination of kinetic constants of purified MheI (HPLC). Conditions: 1-40 μM carbendazim, 200 mM sodium phosphate buffer, 22° C.
A further data set has as its system COC(=O)Nc1nc2ccccc2[nH]1. The data set can be described thus: purified protein, by the assay type. Conditions: other: purified MheI, 1-40 μM carbendazim, 200 mM sodium phosphate buffer, 22° C.

Sequence of MheI (C8CP46 whole entry): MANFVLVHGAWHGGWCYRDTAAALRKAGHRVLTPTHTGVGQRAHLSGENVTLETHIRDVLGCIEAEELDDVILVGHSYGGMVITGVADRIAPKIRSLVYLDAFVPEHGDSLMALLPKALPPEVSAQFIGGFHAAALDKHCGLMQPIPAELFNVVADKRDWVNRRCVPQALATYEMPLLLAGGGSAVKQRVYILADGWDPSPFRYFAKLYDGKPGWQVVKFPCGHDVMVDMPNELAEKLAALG
Method for COC(=O)Nc1nc2ccccc2[nH]1: (§1) Enzyme assays were performed in 96 well microtiter plates (Agilent catalogue number) at 22° C. The assay mixture typically contained 20 μg bovine serum albumin, 0.022 μg purified MheI and 1-40 μM carbendazim in a final volume of 200 μl of 200 mM sodium phosphate buffer. Enzymatic reaction was stopped by adding 5 μl of formic acid after 10 minutes and the initial velocities were measured using HPLC. All these assays were performed in triplicate.
Method for MheI: as §1

As usually defined, the Km is the concentration of substrate that gives half-maximal velocity. `COC(=O)Nc1nc2ccccc2[nH]1` [carbendazim]: the Km on MheI stood at 6.1 µM.
Take MheI (Nocardioides sp. SG-4G): in the data set on COC(=O)Nc1nc2ccccc2[nH]1, the Km was 6.1 µM and the kcat is listed as 120 per second.

The values are drawn from patent US8278063B2, “Methods for degrading toxic compounds” (Commonwealth Scientific and Industrial Research Organisation, priority 2007, dated 2012).
